Blank lines part the entries; values can stand above or below the binder they belong to.
Key:
human PD-1 (on cells) [1] = biological target: T1, human PD-1 (on cells) (human, UniProt Q15116 25-288); assay: cell-based or functional assay
human PD-1 (on cells) [2] = biological target: T1, human PD-1 (on cells); assay: cell-based or functional assay; remark: listed apart in the source
[3] = biological target: T2, human PD-1-extracellular domain (ECD) (human, UniProt Q15116 25-170); assay: SPR (Biacore 2000) at 37 C, antibody captured on Protein A, soluble PD-1-ECD as analyte, 1:1 Langmuir fit, mean ± SD
T2 construct: also called human PD-1-ECD; PD-1-ECD
Description: Samples are diluted in HBS-EP+(10 mM HEPES, 150 mM NaCl, 0.05% Tween-20, pH 7.6) running buffer (Teknova Cat #H8022). Protein A (5 mg/mL, Calbiochem Cat #539202) is immobilized on flow cells 1 to 4 of a CM5 senor chip (GE Healthcare Cat #29149604) at a level of 3000 to 4000 response units (RUs) using amine coupling chemistry. Briefly, the surfaces of all four flow cells are activated by injecting a 1:1 mixture of EDC/NHS for 7-minutes at 10 μL/minute. Protein A is diluted to 200 μg/mL in 10 mM acetate, pH 4.5 buffer and immobilized for approximately 3000-4000 RUs onto all four flow cells by 7-minute injection at flow rate of 10 μL/minute. Unreacted sites are blocked with a 7-minute injection of 1M Ethanolamine-HCl pH 8.5 at 10 μL/minute. Five 30-second injections of glycine pH 1.5 at 10 μL/minute are used to remove any non-covalently associated protein.
Binding is evaluated using multi-cycle kinetics by an antibody capture method. […] All analyte concentrations are determined utilizing monomeric molecular weight (MW) values. Association rates (kₒₙ) and dissociation rates (koff) for PD-1-ECD are evaluated using double referencing by flow-cell 1 reference subtraction in addition to 0 nM blank subtraction and fit to “1:1 (Langmuir) binding” model in the BIAevaluation software version 4.1. […]

human CD137 (on cells) = human CD137 (on cells) (human, UniProt Q07011 24-255); assay: cell-based or functional assay
[4] = biological target: T3, human CD137-ECD-C121S-Fc mutant N42S (human, UniProt Q07011 24-186); assay: point ELISA on coated CD137-Fc mutant, mean of normalised absorbance over eight concentrations
T3 construct: Mutant of human CD137-ECD-C121S-Fc; not shown: Fc part
Source text: (§1) The CD137-Fc mutants are generated using the standard protocol of a commercially-available site directed mutagenesis kit (Quickchange II kit, […]). The wild-type and mutant CD137-Fc proteins are expressed and purified. […] To determine the impact of a mutation on the binding of the antibodies, a point ELISA assay against CD137-Fc wild type and mutants is utilized. The wells of a 96-well Immulon 4HBX ELISA plate are coated overnight with 50 nanograms of human CD137-ECD-C121S-Fc or its mutants in 100 microliters of PBS, pH 7.2 with mild agitation at 4° C. After blocking (with 5% BSA in PBST) and washing, a five-fold dilution eight-point series (100 to 0.00128 nanomolar) of the designated antibody is added and incubated with mild agitation at room temperature for 1 h. The wells are washed and a HRP-conjugated secondary antibody (1:10000 dilution of HRP-conjugated goat anti-Fab antibody (Jackson ImmunoResearch Laboratories) is added and incubated at room temperature following standard protocol. TMB peroxidase chromogenic substrate and stop solution are used according to manufacturer's instruction for visualization and detection of signals. Absorbance readings for each concentration point is normalized by the absorbance of the wild-type interaction. For each mutant, the mean of the normalized ratio for the eight concentrations is determined.

[5] = biological target: T4, human CD137-ECD-C121S-Fc mutant D63N (human, UniProt Q07011 24-186); assay: as above
T4 construct: Mutant of human CD137-ECD-C121S-Fc; not shown: Fc part
Source text: as §1

[6] = biological target: T5, human CD137-ECD-C121S-Fc mutant Q67R (human, UniProt Q07011 24-186); assay: as above
T5 construct: Mutant of human CD137-ECD-C121S-Fc; not shown: Fc part
Source text: as §1

[7] = biological target: T6, human CD137-ECD-C121S-Fc mutant Q67V (human, UniProt Q07011 24-186); assay: as above
T6 construct: Mutant of human CD137-ECD-C121S-Fc; not shown: Fc part
Source text: as §1

[8] = biological target: T7, human CD137-ECD-C121S-Fc mutant A97P (human, UniProt Q07011 24-186); assay: as above
T7 construct: Mutant of human CD137-ECD-C121S-Fc; not shown: Fc part
Source text: as §1

[9] = biological target: T8, human CD137-ECD-C121S-Fc mutant G98K (human, UniProt Q07011 24-186); assay: as above
T8 construct: Mutant of human CD137-ECD-C121S-Fc; not shown: Fc part
Source text: as §1

[10] = biological target: T9, human CD137-ECD-C121S-Fc mutant G98Q (human, UniProt Q07011 24-186); assay: as above
T9 construct: Mutant of human CD137-ECD-C121S-Fc; not shown: Fc part
Source text: as §1

[11] = biological target: T10, human CD137-ECD-C121S-Fc mutant S100T (human, UniProt Q07011 24-186); assay: as above
T10 construct: Mutant of human CD137-ECD-C121S-Fc; not shown: Fc part
Source text: as §1

[12] = biological target: T11, human CD137-ECD-C121S-Fc mutant M101R (human, UniProt Q07011 24-186); assay: as above
T11 construct: Mutant of human CD137-ECD-C121S-Fc; not shown: Fc part
Source text: as §1

[13] = biological target: T12, human CD137-ECD-C121S-Fc mutant Q104K (human, UniProt Q07011 24-186); assay: as above
T12 construct: Mutant of human CD137-ECD-C121S-Fc; not shown: Fc part
Source text: as §1

[14] = biological target: T13, human CD137-ECD-C121S-Fc mutant K114E (human, UniProt Q07011 24-186); assay: as above
T13 construct: Mutant of human CD137-ECD-C121S-Fc; not shown: Fc part
Source text: as §1

[15] = biological target: T14, human CD137-ECD-C121S-Fc mutant K115Q (human, UniProt Q07011 24-186); assay: as above
T14 construct: Mutant of human CD137-ECD-C121S-Fc; not shown: Fc part
Source text: as §1

[16] = biological target: T15, human CD137-ECD-C121S-Fc mutant P27L (human, UniProt Q07011 24-186); assay: as above
T15 construct: Mutant of human CD137-ECD-C121S-Fc; not shown: Fc part
Source text: as §1

human CD137-ECD = biological target: T16, human CD137-ECD (human, UniProt Q07011 24-186); assay: SPR (Biacore 2000) at 37 C, antibody captured on Protein A, soluble CD137-ECD as analyte, steady state affinity fit
T16 construct: In-house generated soluble ECD
T16 sequence (Q07011 24-186 limits assumed): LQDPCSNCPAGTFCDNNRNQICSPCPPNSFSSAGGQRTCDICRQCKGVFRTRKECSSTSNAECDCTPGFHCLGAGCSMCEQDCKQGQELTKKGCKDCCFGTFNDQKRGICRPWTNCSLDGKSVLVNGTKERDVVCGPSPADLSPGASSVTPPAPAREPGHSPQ

T1 sequence (Q15116 25-288 limits assumed): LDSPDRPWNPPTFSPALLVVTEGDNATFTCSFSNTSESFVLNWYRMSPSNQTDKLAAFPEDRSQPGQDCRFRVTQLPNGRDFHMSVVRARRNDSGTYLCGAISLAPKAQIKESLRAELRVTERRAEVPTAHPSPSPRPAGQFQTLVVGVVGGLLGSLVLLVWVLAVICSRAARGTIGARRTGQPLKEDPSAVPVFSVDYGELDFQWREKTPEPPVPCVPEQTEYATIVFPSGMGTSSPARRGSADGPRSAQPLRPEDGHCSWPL
Chain of human CD137 (on cells) (Q07011 24-255 limits assumed): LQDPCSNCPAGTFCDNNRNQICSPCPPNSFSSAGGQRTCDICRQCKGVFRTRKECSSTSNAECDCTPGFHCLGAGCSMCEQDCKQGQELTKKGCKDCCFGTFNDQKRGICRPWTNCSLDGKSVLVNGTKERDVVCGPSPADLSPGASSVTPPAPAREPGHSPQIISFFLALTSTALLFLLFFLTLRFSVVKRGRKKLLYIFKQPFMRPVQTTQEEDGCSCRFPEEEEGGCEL
T12 sequence (Q07011 24-186 Q104K/C121S): as the sequence (Q07011 24-186 limits assumed) above, with Q81K, C98S counted along it
T13 sequence (Q07011 24-186 K114E/C121S): as the sequence (Q07011 24-186 limits assumed) above, with K91E, C98S counted along it
T7 sequence (Q07011 24-186 A97P/C121S): as the sequence (Q07011 24-186 limits assumed) above, with A74P, C98S counted along it
T6 sequence (Q07011 24-186 Q67V/C121S): as the sequence (Q07011 24-186 limits assumed) above, with Q44V, C98S counted along it
T14 sequence (Q07011 24-186 K115Q/C121S): as the sequence (Q07011 24-186 limits assumed) above, with K92Q, C98S counted along it
T9 sequence (Q07011 24-186 G98Q/C121S): as the sequence (Q07011 24-186 limits assumed) above, with G75Q, C98S counted along it
T4 sequence (Q07011 24-186 D63N/C121S): as the sequence (Q07011 24-186 limits assumed) above, with D40N, C98S counted along it
T15 sequence (Q07011 24-186 P27L/C121S): as the sequence (Q07011 24-186 limits assumed) above, with P4L, C98S counted along it
T5 sequence (Q07011 24-186 Q67R/C121S): as the sequence (Q07011 24-186 limits assumed) above, with Q44R, C98S counted along it
T11 sequence (Q07011 24-186 M101R/C121S): as the sequence (Q07011 24-186 limits assumed) above, with M78R, C98S counted along it
T10 sequence (Q07011 24-186 S100T/C121S): as the sequence (Q07011 24-186 limits assumed) above, with S77T, C98S counted along it
T8 sequence (Q07011 24-186 G98K/C121S): as the sequence (Q07011 24-186 limits assumed) above, with G75K, C98S counted along it
T3 sequence (Q07011 24-186 N42S/C121S): as the sequence (Q07011 24-186 limits assumed) above, with N19S, C98S counted along it
T2 sequence (Q15116 25-170 limits assumed): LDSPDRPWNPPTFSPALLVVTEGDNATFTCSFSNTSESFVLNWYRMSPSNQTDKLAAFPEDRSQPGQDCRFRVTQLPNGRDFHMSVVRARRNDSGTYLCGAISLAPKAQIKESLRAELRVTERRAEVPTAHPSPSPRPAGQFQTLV

- EC50, NFAT-Luc reporter assay (Jurkat PD-1+CD137+NFAT-Luc2 cells with CHO-K1 PD-L1+TCR activator cells) (human PD-1 (on cells) [1]): 1.4 nM
- IFN-γ mean EC50 in allogeneic MLR assay (3 donor pairs) (human PD-1 (on cells) [2]): 0.088 nM
- IL-2 mean EC50 in allogeneic MLR assay (3 donor pairs) (human PD-1 (on cells) [2]): 0.238 nM
- Kd [3]: 3.1 nM
B1: Antibody p-11444 (the parental antibody of the anti-PD1 arm of Antibody A) (antibody, V domains shown)
VH: QVQLVQSGAEVKKPGSSVKVSCKASGGTFSSYAISWVRQAPGQGLEWMGLIIPMFDTAGYAQKFQGRVAITVDESTSTAYMELSSLRSEDTAVYYCARAEHSSTGTFDYWGQGTLVTVSS
VL: DIQMTQSPSSVSASVGDRVTITCRASQGISSWLAWYQQKPGKAPKLLISAASSLQSGVPSRFSGSGSGTDFTLTISSLQPEDFATYYCQQANHLPFTFGGGTKVEIK
notes: Parental monoclonal anti-PD-1 antibody

- fold induction of NFkB-Luc luciferase signal at 0.01 nM antibody (human CD137 (on cells)): 0.98 fold
- fold induction of NFkB-Luc luciferase signal at 0.04 nM antibody (human CD137 (on cells)): 0.88 fold
- fold induction of NFkB-Luc luciferase signal at 0.15 nM antibody (human CD137 (on cells)): 0.94 fold
- fold induction of NFkB-Luc luciferase signal at 0.59 nM antibody (human CD137 (on cells)): 1.07 fold
- fold induction of NFkB-Luc luciferase signal at 2.34 nM antibody (human CD137 (on cells)): 1.66 fold
- fold induction of NFkB-Luc luciferase signal at 9.38 nM antibody (human CD137 (on cells)): 2.29 fold
- fold induction of NFkB-Luc luciferase signal at 37.50 nM antibody (human CD137 (on cells)): 2.72 fold
- fold induction of NFkB-Luc luciferase signal at 150.00 nM antibody (human CD137 (on cells)): 2.6 fold
- IFN-γ mean EC50 in allogeneic MLR assay (3 donor pairs) (human PD-1 (on cells) [2]): > 32 nM
- IL-2 mean EC50 in allogeneic MLR assay (3 donor pairs) (human PD-1 (on cells) [2]): > 32 nM
- % of binding relative to wild-type hCD137 [4]: 100%
- % of binding relative to wild-type hCD137 [5]: 100%
- % of binding relative to wild-type hCD137 [6]: 100%
- % of binding relative to wild-type hCD137 [7]: 100%
- % of binding relative to wild-type hCD137 [8]: 15%
- % of binding relative to wild-type hCD137 [9]: 85%
- % of binding relative to wild-type hCD137 [10]: 100%
- % of binding relative to wild-type hCD137 [11]: 100%
- % of binding relative to wild-type hCD137 [12]: 100%
- % of binding relative to wild-type hCD137 [13]: 100%
- % of binding relative to wild-type hCD137 [14]: 20%
- % of binding relative to wild-type hCD137 [15]: 25%
- % of binding relative to wild-type hCD137 [16]: 100%
- Kd (human CD137-ECD): 341 nM
B2: Antibody p-7A5 (the parental antibody of the anti-CD137 arm of Antibody A) (antibody, V domains shown)
VH: QVQLVQSGAEVKKPGSSVKVSCKASGGTFSSYAISWVRQAPGQGLEWMGGIIPIFGTANYAQKFQGRVTITADESTSTAYMELSSLRSEDTAVYYCARDLMTTAPGTYFDLWGRGTLVTVSS
VL: AIRMTQSPPSLSASVGDRVTITCQASQDIGNSLGWYQQKPGKAPKLVIFDASDLETGVPSRFSGSGSGTDFSLTISSLQPEDFATYYCQQGNSFPLTFGQGTRLEIK
notes: Parental monoclonal anti-CD137 antibody; also called Antibody 7A5; parental antibody 7A5

- % of binding relative to wild-type hCD137 [5]: 100%
- % of binding relative to wild-type hCD137 [6]: 100%
- % of binding relative to wild-type hCD137 [7]: 100%
- % of binding relative to wild-type hCD137 [8]: 100%
- % of binding relative to wild-type hCD137 [9]: 100%
- % of binding relative to wild-type hCD137 [10]: 100%
- % of binding relative to wild-type hCD137 [11]: 100%
- % of binding relative to wild-type hCD137 [12]: 100%
- % of binding relative to wild-type hCD137 [13]: 100%
- % of binding relative to wild-type hCD137 [14]: 100%
- % of binding relative to wild-type hCD137 [15]: 100%
- % of binding relative to wild-type hCD137 [16]: 85%
B3: BMS20H4.9 (antibody, V domains shown)
VH: QVQLQQWGAGLLKPSETLSLTCAVYGGSFSGYYWSWIRQSPEKGLEWIGEINHGGYVTYNPSLESRVTISVDTSKNQFSLKLSSVTAADTAVYYCARDYGPGNYDWYFDLWGRGTLVTVSS
VL: EIVLTQSPATLSLSPGERATLSCRASQSVSSYLAWYQQKPGQAPRLLIYDASNRATGIPARFSGSGSGTDFTLTISSLEPEDFAVYYCQQRSNWPPALTFGGGTKVEIKR
